From article PMC4195440

Biological target: Siglec-10 receptor overexpressed on CHO cells (UniProt Q96LC7)
Sequence of UniProt Q96LC7 (Q96LC7 17-697): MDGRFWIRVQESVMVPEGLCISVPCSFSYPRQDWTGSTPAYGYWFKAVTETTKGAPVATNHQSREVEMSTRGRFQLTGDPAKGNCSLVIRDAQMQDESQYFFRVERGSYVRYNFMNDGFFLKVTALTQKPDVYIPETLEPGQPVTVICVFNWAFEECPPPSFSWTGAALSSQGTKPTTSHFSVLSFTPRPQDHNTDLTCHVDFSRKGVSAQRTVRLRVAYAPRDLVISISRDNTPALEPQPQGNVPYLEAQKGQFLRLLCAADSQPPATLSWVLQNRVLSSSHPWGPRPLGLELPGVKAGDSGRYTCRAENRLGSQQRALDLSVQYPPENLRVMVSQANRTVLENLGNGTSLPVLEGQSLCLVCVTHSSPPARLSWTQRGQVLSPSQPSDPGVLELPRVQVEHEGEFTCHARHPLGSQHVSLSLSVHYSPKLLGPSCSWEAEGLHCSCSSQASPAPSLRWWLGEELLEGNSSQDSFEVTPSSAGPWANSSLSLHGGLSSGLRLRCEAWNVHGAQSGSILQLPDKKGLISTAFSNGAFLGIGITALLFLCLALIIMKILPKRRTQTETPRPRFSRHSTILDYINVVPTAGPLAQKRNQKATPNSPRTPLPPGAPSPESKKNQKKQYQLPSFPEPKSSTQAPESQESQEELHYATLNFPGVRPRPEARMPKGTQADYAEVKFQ

flagella (flagellin FlaA) of C. jejuni 11168H WT (from UniProt P56963 1-572) (natural protein)
IL-10 secretion (ELISA) of Siglec-10 transduced RAW264.7 cells against GFP control-transduced cells, infection with live 11168H WT, MOI 100, 24 hours: 2 fold
